Target: T1, CTI2 (Arabidopsis thaliana, UniProt Q9M8T2)
T1 chain: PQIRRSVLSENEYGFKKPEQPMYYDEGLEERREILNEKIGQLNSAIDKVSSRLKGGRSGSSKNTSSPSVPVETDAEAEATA
Test: MST

B1: alphaCT (protein)
chain: INMKKREAVFSDSRKLQGEVDKLKEQILKAKETSTEAEPSSEVLNEMIEKLKSEIDDEYTEAAIAVGLEERLTAMREEFSKASSEEHLMHPVLIEKIEKLKEEFNTRLTDAPNYESLKSKLNMLRDFSRAKAASEATSLKKEINKRFQEAVDRPEIREKVEAIKAEVASSGASSFDELPDALKEKVLKTKGEVEAEMAGVLKSMGLELDAVKQNQKDTAEQIYAANENLQEKLEKLNQEITSKIEEVVRTPEIKSMVELLKVETAKASKTPGVTEAYQKIEALEQQIKQKIAEALNTSGLQEKQDELEKELAAARELAAEESDGSVKEDDDDDEDSSESGKSEMVNPSFA
- Kd: 1400 nM

— PMC7712654 (2020)
